Results published in publication PMC11336141.

Target: human somatostatin receptor 2, Tango construct (human) (UniProt P30874)
Sequence (P30874 whole entry): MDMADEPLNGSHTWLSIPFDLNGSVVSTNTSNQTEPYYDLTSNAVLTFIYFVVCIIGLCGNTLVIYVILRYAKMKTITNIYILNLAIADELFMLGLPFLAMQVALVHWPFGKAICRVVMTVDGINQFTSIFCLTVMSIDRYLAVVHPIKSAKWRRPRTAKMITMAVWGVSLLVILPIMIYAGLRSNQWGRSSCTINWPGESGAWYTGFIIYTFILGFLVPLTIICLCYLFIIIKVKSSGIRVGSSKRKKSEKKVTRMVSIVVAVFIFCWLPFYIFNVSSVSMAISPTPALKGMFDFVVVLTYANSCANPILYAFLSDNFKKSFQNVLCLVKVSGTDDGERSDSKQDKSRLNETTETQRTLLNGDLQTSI

octreotide (peptide)
EC50, PRESTO-Tango β-arrestin recruitment assay: 0.9 nM
